# According to patent US20170342160A1 (CHIOME BIOSCIENCE, published 2017):
# T1: recombinant extracellular domain of human 5T4 (soluble, produced in house) (human, UniProt Q13641 32-355)
# T1 construct: extracellular domain; The signal peptide lies within residues 1-355 and is not part of the secreted protein; also called 5T4-ECD; 5T4 recombinant protein
# T1 sequence: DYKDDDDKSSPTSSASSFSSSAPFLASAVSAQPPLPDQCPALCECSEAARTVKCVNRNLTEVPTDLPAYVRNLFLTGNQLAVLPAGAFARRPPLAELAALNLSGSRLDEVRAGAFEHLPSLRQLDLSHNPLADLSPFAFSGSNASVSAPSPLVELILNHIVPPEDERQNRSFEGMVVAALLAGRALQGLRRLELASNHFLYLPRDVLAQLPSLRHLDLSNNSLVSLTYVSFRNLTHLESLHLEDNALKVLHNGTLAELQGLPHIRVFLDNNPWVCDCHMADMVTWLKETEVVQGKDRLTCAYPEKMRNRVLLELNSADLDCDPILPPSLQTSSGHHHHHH
# T2: human 5T4 on 5T4-positive tumour cells (MSTO-211H mesothelioma cell line and other tumour cell lines) (human, UniProt Q13641 32-420)
# T2 sequence (looked up): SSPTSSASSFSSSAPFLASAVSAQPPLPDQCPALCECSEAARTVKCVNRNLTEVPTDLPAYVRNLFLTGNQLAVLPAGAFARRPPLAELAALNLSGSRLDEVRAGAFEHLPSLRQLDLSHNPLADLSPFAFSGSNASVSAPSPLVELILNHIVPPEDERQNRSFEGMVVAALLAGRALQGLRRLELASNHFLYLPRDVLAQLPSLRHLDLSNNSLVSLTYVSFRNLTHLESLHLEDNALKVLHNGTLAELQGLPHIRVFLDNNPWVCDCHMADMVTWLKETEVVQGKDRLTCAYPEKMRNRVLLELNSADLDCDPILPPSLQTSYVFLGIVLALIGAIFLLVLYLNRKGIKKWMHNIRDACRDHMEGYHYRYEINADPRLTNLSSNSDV
# B1: Tb535C, chimeric 5T4xCD3 Tribody fusion protein based on murine 5T4 binders (bispecific antibody)
# chain 1: EVQLQQSGPDLVKPGASVKISCKASGYSFTGYYMHWVKQSPGKGLEWIGRINPNNGVTLYNQKFKDKATLTVDKSSTTAYMELRSLTSEDSAVYYCARSTMITNYVMDYWGQGTSVTVSSASTKGPSVFPLAPSSKSTSGGTAALGCLVKDYFPEPVTVSWNSGALTSGVHTFPAVLQSSGLYSLSSVVTVPSSSLGTQTYICNVNHKPSNTKVDKKVEPKSCDKTHTGPGGGSPGQVQLVQSGAELKKPGASVKVSCKASGYTFTRYTMHWVRQAPGQCLEWMGYINPSRGYTNYNQKFKDKATLTADKSTSTAYMELRSLRSDDTAVYYCARYYDDHYSLDYWGQGTLVTVSSASGGGGSGGGGSGGGGSAGDIQLTQSPSILSASVGDRVTITCRASSSVSYMNWYQQKPGKAPKRWIYDTSKVASGVPYRFSGSGSGTEYTLTISSMQPEDFATYYCQQWSSNPLTFGCGTKVEIK
# chain 2: SIVMTQTPTSLLVSAGDRVTITCKASQSVSNDVAWYQQKPGQSPKLLISYTSSRYAGVPDRFSGSGYGTDFTLTISSVQAEDAAVYFCQQDYNSPPTFGGGTKLEIKRTVAAPSVFIFPPSDEQLKSGTASVVCLLNNFYPREAKVQWKVDNALQSGNSQESVTEQDSKDSTYSLSSTLTLSKADYEKHKVYACEVTHQGLSSPVTKSFNRGECGPGGGSPGEVQLVQSGPDDVKPGGSVKISCKASGYSFTGYYMHWVKQSPGKCLEWIGRINPNNGVTLYNQKFKDKATLTVDKSSTTAYMELRSLTSEDSAVYYCARSTMITNYVMDYWGQGTLVTVSSASGGGGSGGGGSGGGGSAGDIVMTQTPTSLLVSAGDRVTITCKASQSVSNDVAWYQQKPGQSPKLLISYTSSRYAGVPDRFSGSGYGTDFTLTISSVQAEDAAVYFCQQDYNSPPTFGCGTKLEIKSG
# notes: Heterodimer through CH1:CL; also called Tribody based on the murine variable domains
# B2: Tb535H, humanized 5T4xCD3 Tribody fusion protein (Fab(5T4) with C-terminal dsFv(CD3) and dsFv(5T4)) (bispecific antibody)
# chain 1: QVQLVQSGAEVKKPGASVKVSCKASGYSFTSYYMHWVKQSPGQGLEWIGRINPNNGVTLYNQKFKDRVTMTRDTSISTAYMELSRLRSDDTAVYYCARSTMITNYVMDYWGQGTLVTVSSASTKGPSVFPLAPSSKSTSGGTAALGCLVKDYFPEPVTVSWNSGALTSGVHTFPAVLQSSGLYSLSSVVTVPSSSLGTQTYICNVNHKPSNTKVDKKVEPKSCDKTHTGPGGGSPGQVQLVQSGAELKKPGASVKVSCKASGYTFTRYTMHWVRQAPGQCLEWMGYINPSRGYTNYNQKFKDKATLTADKSTSTAYMELRSLRSDDTAVYYCARYYDDHYSLDYWGQGTLVTVSSASGGGGSGGGGSGGGGSAGDIQLTQSPSILSASVGDRVTITCRASSSVSYMNWYQQKPGKAPKRWIYDTSKVASGVPYRFSGSGSGTEYTLTISSMQPEDFATYYCQQWSSNPLTFGCGTKVEIKSG
# chain 2: not shown
# notes: also called Tb535H-1120; Tb-5T4
# B3: Fab(5T4), humanized VH(5T4) SEQ ID 6 and VL(5T4) SEQ ID 19 in Fab format (Fab, V domains shown)
# VH: QVQLVQSGAEVKKPGASVKVSCKASGYSFTSYYMHWVKQSPGQGLEWIGRINPNNGVTLYNQKFKDRVTMTRDTSISTAYMELSRLRSDDTAVYYCARSTMITNYVMDYWGQGTLVTVSS
# VL: DIVMTQSPDSLAVSLGERATINCKASQSVSNDVAWYQQKPGQPPKLLIYYTSSRYAGVPDRFSGSGSGTDFTLTISSLQAEDVAVYYCQQDYNSPPTFGGGTKLEIK
# notes: Fab format
# B4: dsFv(5T4), humanized VH(5T4) SEQ ID 6 and VL(5T4) SEQ ID 19 in dsFv format (scFv)
# scFv: QVQLVQSGAEVKKPGASVKVSCKASGYSFTSYYMHWVKQSPGQCLEWIGRINPNNGVTLYNQKFKDRVTMTRDTSISTAYMELSRLRSDDTAVYYCARSTMITNYVMDYWGQGTLVTVSSASGGGGSGGGGSGGGGSAGDIVMTQSPDSLAVSLGERATINCKASQSVSNDVAWYQQKPGQPPKLLIYYTSSRYAGVPDRFSGSGSGTDFTLTISSLQAEDVAVYYCQQDYNSPPTFGCGTKLEIK
# notes: also called dsFvhu5T4; scFv
# B5: BiTE format, scFv(5T4)-scFv(CD3) fusion with humanized VH(5T4) SEQ ID 6 and VL(5T4) SEQ ID 19 (bispecific antibody, V domains shown)
# VH: B3 VH
# VL: B3 VL
# notes: The molecule is a single polypeptide, scFv(5T4)-scFv(CD3); also called scFv-scFv format
# B6: IgG(5T4), humanized VH(5T4) SEQ ID 6 and VL(5T4) SEQ ID 19 in IgG format (antibody, V domains shown)
# VH: B3 VH
# VL: B3 VL
# notes: also called IgG1(5T4)
# How the values were obtained:
# [1] = biological target: T3, human CD3 (CD3 receptor complex on T cells) on Jurkat cells and on human PBMC (human, UniProt P07766 23-207); assay: row 'CD3 binding (KD)'; cellular ELISA on Jurkat T-cells (panel B)
# T3 construct: whole, on cells; The other chains of the complex are not specified; also called human CD3 domain; CD3 epsilon
# T3 sequence (P07766 23-207, one chain of several): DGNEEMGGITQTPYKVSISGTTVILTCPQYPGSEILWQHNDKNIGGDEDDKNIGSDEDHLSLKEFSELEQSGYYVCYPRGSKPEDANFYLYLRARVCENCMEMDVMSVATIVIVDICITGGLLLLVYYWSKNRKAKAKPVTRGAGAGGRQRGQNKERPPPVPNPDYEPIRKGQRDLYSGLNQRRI
# Method: For Affinity to the human CD3 domain, a cell based ELISA with a T-cell lymphoma (CD3+) cell line, Jurkat, was used. Jurkat cells are collected, washed and aliquoted into each well of a round-bottom 96 well microplate. Tribody/sample dilutions were prepared in PBS, added to the cells and incubated. Following wash steps, detection antibody is added to the samples (anti-human Kappa light chain AP; e.g. Sigma, Cat. No. K4377). Bound detection antibody is measured by development of a colorimetric reaction upon addition of p-NPP (Cat-No: N7653, Sigma) and the absorbance quantified on a micro-well plate reader and processed by non-linear regression using graph Pad Prism software.
# [2] = biological target: T1, recombinant extracellular domain of …; assay: row '5T4-binding (KD)'; ELISA on 5T4 extracellular domain (panel A)
# Method: (§1) For Affinity to 5T4 target antigen an ELISA with the 5T4 antigen is used. Target antigen, 5T4 extra cellular domain, produced in house is coated to polystyrene flat bottom 96 well microplate and blocked. Tribody/sample dilutions were prepared in TBS with 0.2% w/v powdered milk, added to the plate and incubated. Following wash steps, detection antibody is added to the samples (anti-human Kappa light chain AP; e.g. Sigma, Cat. No. K4377). Bound detection antibody is measured by development of a colorimetric reaction upon addition of p-NPP (Cat-No: N7653, Sigma) and the absorbance quantified on a micro-well plate reader and processed by non-linear regression using graph Pad Prism software.
# [3] = biological target: T1, recombinant extracellular domain of …; assay: ELISA on 5T4 protein (extracellular domain)
# Method: as §1
# [4] = biological target: T1, recombinant extracellular domain of …; assay: ELISA on coated 5T4-ECD
# Method: as §1
# [5] = biological target: T2, human 5T4 on 5T4-positive tumour cells …; assay: cell-based or functional assay
# [6] = biological target: T2, human 5T4 on 5T4-positive tumour cells …; assay: FACS titration on MSTO-211H cells (row 'FACS' of the inset table 'Method / KD Tb535H (nM)')
# Method: (§2) To access the binding of anti-5T4 molecules (scFv, Fab and Tribody format) to the human 5T4 domain, the biphasic mesothelioma cell line MSTO-211H (ATCC CRL-2081) was tested by FACS binding assay with direct labelled molecules with Allophycocyanin (APC) by the Lightning-Link® APC kit from Innova Biosciences, following the manufacturer instructions.
# (§3) Cells are then washed twice with PBS and binding to cell surface is accessed by flow cytometry using a BD FACsalibur apparatus.
# [7] = biological target: T3, human CD3 (CD3 receptor complex on T …); assay: cell binding titration (Abs 405nm) on human PBMC, donor PBMC#5886
# [8] = biological target: T2, human 5T4 on 5T4-positive tumour cells …; assay: FACS titration on MSTO-211H cells
# Method: as §2, §3
# [9] = biological target: T3, human CD3 (CD3 receptor complex on T …); assay: flow cytometry titration on peripheral blood cells of 3 different donors; peripheral blood cells of 3 different donors; cell-binding titration, KD = 50% binding concentration
# [10] = biological target: T1, recombinant extracellular domain of …; assay: ELISA on recombinant 5T4 extracellular domain
# Method: as §1
# [11] = biological target: T3, human CD3 (CD3 receptor complex on T …); assay: cell binding titration (Abs 405nm) on human PBMC, donor PBMC#2053
# [12] = biological target: T3, human CD3 (CD3 receptor complex on T …); assay: cell binding titration (Abs 405nm) on human PBMC, donor printed as PBMC49966
binder,measurement,setting,value
B1,Kd,[1],30 nM
same,Kd,[2],0.8 nM
same,EC50 (read off the curve),[3],~0.7 nM
same,Kd,[4],1 nM
same,EC50 of cytotoxicity (MSTO-211H target cells with human PBMC),[5],0.01 nM
B2,Kd,[6],4.6 nM
same,Kd,[1],23 nM
same,Kd,[7],24 nM
same,Kd,[2],1.1 nM
same,EC50 (read off the curve),[8],~5 nM
same,EC50 (read off the curve),[3],~1 nM
same,Kd,[9],~25 nM
same,EC50 (read off the curve),[10],~1 nM
same,Kd,[4],0.9 nM
same,Kd,[11],26 nM
same,EC50 of cytotoxicity (MSTO-211H target cells with human PBMC),[5],0.007 nM
same,Kd,[12],26 nM
B3,EC50 (read off the curve),[10],~2 nM
same,Kd,[4],2.9 nM
B4,EC50 (read off the curve),[10],~1 nM
same,Kd,[4],2.3 nM
B5,Kd,[4],2 nM
B6,Kd,[4],0.7 nM
